Assay [1] addresses T1, memapsin 1 (auto-catalytically activated promemapsin 1-T1; amino acid residues 58-461 of SEQ ID NO: 4) (Homo sapiens (Human), UniProt Q9Y5Z0 63-466).
T1 construct: also called Mep1; M1
T1 sequence: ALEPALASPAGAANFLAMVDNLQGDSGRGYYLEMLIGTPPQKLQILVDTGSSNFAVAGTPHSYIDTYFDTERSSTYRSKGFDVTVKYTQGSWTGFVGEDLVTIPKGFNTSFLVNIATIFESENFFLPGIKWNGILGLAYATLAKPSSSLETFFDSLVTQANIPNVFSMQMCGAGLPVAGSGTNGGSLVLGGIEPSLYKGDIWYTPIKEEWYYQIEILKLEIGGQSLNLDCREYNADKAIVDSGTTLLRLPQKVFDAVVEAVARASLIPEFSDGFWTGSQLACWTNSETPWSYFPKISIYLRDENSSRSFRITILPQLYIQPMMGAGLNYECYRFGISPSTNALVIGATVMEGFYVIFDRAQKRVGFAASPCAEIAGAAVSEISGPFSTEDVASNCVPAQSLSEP
Description: on-bead combinatorial inhibitor library probed with memapsin 1, antibody/alkaline phosphatase staining.

Assay [2] deals with T2, memapsin 2 (spontaneously activated promemapsin 2-T1; amino acids 43-456 and 45-456 of SEQ ID NO: 8) (human, UniProt P56817 41-454).
T2 construct: The library probing says only 'recombinant memapsin 2'; also called BACE; ASP2
Description: enzyme inhibition kinetics.

The target of assay [3] is T1, memapsin 1 (auto-catalytically …). Kind of assay: inhibition of FS-2 fluorogenic substrate cleavage.
The target is the same in assay [4]. Kind of assay: ratio of Ki apparent for memapsin 1 to Ki apparent for memapsin 2.
Assay [5] deals with T2, memapsin 2 (spontaneously activated …). Description: inhibition of FS-2 fluorogenic substrate cleavage; paragraph 177 calls the same value Ki.
For assay [6] the target is unchanged. Description: on-bead combinatorial inhibitor library probed with 4 nM memapsin 2, OM99-2 wash, antibody/alkaline phosphatase staining.
The target is the same in assay [7]. Description: on-bead combinatorial inhibitor library, antibody/alkaline phosphatase staining.
Assay [8] shares this target. Description: co-crystal structure.

Where no end group is shown, it is not given here. resin bead = not defined here; resin = not defined here

T2 sequence (P56817 41-454): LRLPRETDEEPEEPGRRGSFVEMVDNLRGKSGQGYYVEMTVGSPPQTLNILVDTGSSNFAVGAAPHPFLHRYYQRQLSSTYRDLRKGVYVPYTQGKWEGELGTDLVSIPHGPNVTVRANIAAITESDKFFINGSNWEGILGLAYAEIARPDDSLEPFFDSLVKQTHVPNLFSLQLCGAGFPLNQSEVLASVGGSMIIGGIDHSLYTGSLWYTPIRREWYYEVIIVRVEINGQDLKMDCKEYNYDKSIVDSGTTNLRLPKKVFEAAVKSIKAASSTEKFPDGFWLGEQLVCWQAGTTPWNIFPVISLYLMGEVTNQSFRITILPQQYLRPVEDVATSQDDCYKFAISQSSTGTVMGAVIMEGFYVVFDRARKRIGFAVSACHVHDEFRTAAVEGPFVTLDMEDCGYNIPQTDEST

B1: library bead inhibitor Gly-Ile-Asn-Leu*Ala-Val-Leu-Phe-Arg-Met-Gly-Gly-resin (peptide)
peptide: GINLAVLFRMGG-resin
modifications: reading uncertain; also: hydroxyethylene isostere between Leu4 and Ala5, printed as Gly-Ile-Asn-Leu*Ala-Val-Leu-Phe-Arg-Met-Gly-Gly-resin
For B1, the binding result in assay [1] is given as “binds”.

B2: library bead inhibitor Gly-Leu-Gln-Leu*Ala-Val-Ile-Phe-Arg-Met-Gly-Gly-resin (peptide)
peptide: GLQLAVIFRMGG-resin
modifications: reading uncertain; also: hydroxyethylene isostere between Leu4 and Ala5, printed as Gly-Leu-Gln-Leu*Ala-Val-Ile-Phe-Arg-Met-Gly-Gly-resin
Take B2: the binding result in assay [1] is reported as “binds”.
As for ELDLAVEF (also: hydroxyethylene isostere in place of Leu4-Ala5 peptide bond) [OM00-3 (ELDL*AVEF)], in assay [2], the affinity, expressed as Ki, was 0.3 nM; the “fold improvement of Ki over OM99-2” value is 5.2 fold; the “fold lower Ki than OM99-2” value was roughly 5 fold. Besides, the Ki apparent in assay [3] was 0.18 nM. Also, the “Ki apparent (M1/M2)” value in assay [4] was 0.59. The Ki apparent in assay [5] is 0.31 nM.

B3: library bead inhibitor Gly-Ile-Phe-Leu*Ala-Val-Glu-Phe-Arg-Met-Gly-Gly-resin (peptide)
peptide: GIFLAVEFRMGG-resin
modifications: reading uncertain; also: hydroxyethylene isostere between Leu4 and Ala5, printed as Gly-Ile-Phe-Leu*Ala-Val-Glu-Phe-Arg-Met-Gly-Gly-resin
For the molecule B3, the binding result in assay [1] is “binds”.

B4: library bead inhibitor Gly-Ile-Asp-Leu*Ala-Val-Tyr-Phe-Arg-Met-Gly-Gly-resin (peptide)
peptide: GIDLAVYFRMGG-resin
modifications: reading uncertain; also: hydroxyethylene isostere between Leu4 and Ala5, printed as Gly-Ile-Asp-Leu*Ala-Val-Tyr-Phe-Arg-Met-Gly-Gly-resin
For B4, in assay [6], the binding result is reported as “binds”.

B5: library bead inhibitor Gly-Leu-Asp-Leu*Ala-Val-Trp-Phe-Arg-Met-Gly-Gly-resin (peptide)
peptide: GLDLAVWFRMGG-resin
modifications: reading uncertain; also: hydroxyethylene isostere between Leu4 and Ala5, printed as Gly-Leu-Asp-Leu*Ala-Val-Trp-Phe-Arg-Met-Gly-Gly-resin
On to B5, for which, in assay [1], the binding result is reported as “binds”.

B6: library bead inhibitor Gly-Leu-Asp-Leu*Ala-Val-Thr-Phe-Arg-Met-Gly-Gly-resin (peptide)
peptide: GLDLAVTFRMGG-resin
modifications: reading uncertain; also: hydroxyethylene isostere between Leu4 and Ala5, printed as Gly-Leu-Asp-Leu*Ala-Val-Thr-Phe-Arg-Met-Gly-Gly-resin
As for B6, the binding result in assay [1] was “binds”.

B7: library bead inhibitor Gly-Leu-Glu-Leu*Ala-Val-Trp-Phe-Arg-Met-Gly-Gly-resin (peptide)
peptide: GLELAVWFRMGG-resin
modifications: reading uncertain; also: hydroxyethylene isostere between Leu4 and Ala5, printed as Gly-Leu-Glu-Leu*Ala-Val-Trp-Phe-Arg-Met-Gly-Gly-resin
In the case of B7, the binding result in assay [1] was “binds”.

B8: library bead inhibitor Gly-Leu-Asp-Leu*Ala-Val-Lys-Phe-Arg-Met-Gly-Gly-resin (peptide)
peptide: GLDLAVKFRMGG-resin
modifications: reading uncertain; also: hydroxyethylene isostere between Leu4 and Ala5, printed as Gly-Leu-Asp-Leu*Ala-Val-Lys-Phe-Arg-Met-Gly-Gly-resin
Regarding B8, the binding result in assay [1] was “binds”.

B9: library bead inhibitor Gly-Leu-Glu-Leu*Ala-Val-Gln-Phe-Arg-Met-Gly-Gly-resin (peptide)
peptide: GLELAVQFRMGG-resin
modifications: reading uncertain; also: hydroxyethylene isostere between Leu4 and Ala5, printed as Gly-Leu-Glu-Leu*Ala-Val-Gln-Phe-Arg-Met-Gly-Gly-resin
With B9, the binding result in assay [1] and in assay [6] was “binds” each time.

B10: library bead inhibitor Gly-Leu-Asp-Leu*Ala-Val-Met-Phe-Arg-Met-Gly-Gly-resin (peptide)
peptide: GLDLAVMFRMGG-resin
modifications: reading uncertain; also: hydroxyethylene isostere between Leu4 and Ala5, printed as Gly-Leu-Asp-Leu*Ala-Val-Met-Phe-Arg-Met-Gly-Gly-resin
In the case of B10, the binding result in assay [1] is given as “binds”.

B11: library bead inhibitor Gly-Leu-Asp-Leu*Ala-Val-Leu-Phe-Arg-Met-Gly-Gly-resin (peptide)
peptide: GLDLAVLFRMGG-resin
modifications: reading uncertain; also: hydroxyethylene isostere between Leu4 and Ala5, printed as Gly-Leu-Asp-Leu*Ala-Val-Leu-Phe-Arg-Met-Gly-Gly-resin
Take B11: in assay [1], the binding result is “binds”.

B12: library bead Neg2: Gly-Asp-Phe-Leu*Ala-(not printed)-Ser-Phe-Arg-Met-Gly-Gly-resin (peptide)
peptide: GDFLAXSFRMGG-{resin bead}
modifications: not fully specified; X: residue not identified in the source; also: hydroxyethylene isostere between Leu4 and Ala5
notes: Randomly selected negative control bead
Take B12: in assay [7], the binding result was “no binding (tested: 4 nM memapsin 2)”.

B13: library bead inhibitor Gly-Leu-Asn-Leu*Ala-Val-Glu-Phe-Arg-Met-Gly-Gly-resin (peptide)
peptide: GLNLAVEFRMGG-resin
modifications: reading uncertain; also: hydroxyethylene isostere between Leu4 and Ala5, printed as Gly-Leu-Asn-Leu*Ala-Val-Glu-Phe-Arg-Met-Gly-Gly-resin
Take B13: the binding result in assay [1] is “binds”.

B14: library bead inhibitor Gly-Leu-Asp-Leu*Ala-Val-Glu-Phe-Arg-Met-Gly-Gly-resin (peptide)
peptide: GLDLAVEFRMGG-resin
modifications: reading uncertain; also: hydroxyethylene isostere between Leu4 and Ala5, printed as Gly-Leu-Asp-Leu*Ala-Val-Glu-Phe-Arg-Met-Gly-Gly-resin
For B14, the binding result in assay [6] is listed as “binds”.

B15: library bead inhibitor Gly-Leu-Glu-Leu*Ala-Val-Glu-Phe-Arg-Met-Gly-Gly-resin (peptide)
peptide: GLELAVEFRMGG-resin
modifications: reading uncertain; also: hydroxyethylene isostere between Leu4 and Ala5, printed as Gly-Leu-Glu-Leu*Ala-Val-Glu-Phe-Arg-Met-Gly-Gly-resin
For B15, the binding result in assay [6] is given as “binds”.

B16: library bead inhibitor Gly-Leu-Asp-Leu*Ala-Val-Gln-Phe-Arg-Met-Gly-Gly-resin (peptide)
peptide: GLDLAVQFRMGG-resin
modifications: reading uncertain; also: hydroxyethylene isostere between Leu4 and Ala5, printed as Gly-Leu-Asp-Leu*Ala-Val-Gln-Phe-Arg-Met-Gly-Gly-resin
Turning to B16, the binding result in assay [6] is “binds”.

B17: library bead inhibitor Gly-Leu-Phe-Leu*Ala-Val-Glu-Phe-Arg-Met-Gly-Gly-resin (peptide)
peptide: GLFLAVEFRMGG-resin
modifications: reading uncertain; also: hydroxyethylene isostere between Leu4 and Ala5, printed as Gly-Leu-Phe-Leu*Ala-Val-Glu-Phe-Arg-Met-Gly-Gly-resin
With B17, the binding result in assay [6] was “binds”.

B18: library bead Neg1: Gly-Phe-Met-Leu*Ala-Asn-Arg-Phe-Arg-Met-Gly-Gly-resin (peptide)
peptide: GFMLANRFRMGG-resin
modifications: reading uncertain; also: hydroxyethylene isostere between Leu4 and Ala5, printed as Gly-Phe-Met-Leu*Ala-Asn-Arg-Phe-Arg-Met-Gly-Gly-resin
notes: as for B12
In the case of B18, in assay [7], the binding result was “no binding (tested: 4 nM memapsin 2)”.

B19: library bead inhibitor Gly-Ile-Asp-Leu*Ala-Val-Val-Phe-Arg-Met-Gly-Gly-resin (peptide)
peptide: GIDLAVVFRMGG-resin
modifications: reading uncertain; also: hydroxyethylene isostere between Leu4 and Ala5, printed as Gly-Ile-Asp-Leu*Ala-Val-Val-Phe-Arg-Met-Gly-Gly-resin
Regarding B19, the binding result in assay [1] is “binds”.

B20: library bead inhibitor Gly-Ile-Asp-Leu*Ala-Val-Asn-Phe-Arg-Met-Gly-Gly-resin (peptide)
peptide: GIDLAVNFRMGG-resin
modifications: reading uncertain; also: hydroxyethylene isostere between Leu4 and Ala5, printed as Gly-Ile-Asp-Leu*Ala-Val-Asn-Phe-Arg-Met-Gly-Gly-resin
For B20, the binding result in assay [1] was “binds”.

B21: OM99-2 (EVNL*AAEF) (peptide)
peptide: EVNXXAEF
modifications: hydroxyethylene transition-state isostere (*) in place of the peptide bond between Leu4 (P1) and Ala5 (P1′)
notes: also called EVNLΨAAEF
For B21, the binding result in assay [8] is on record as “binds”.

The record behind these values is patent US20060234944A1 (OKLAHOMA MEDICAL RESEACH FOUNDATION, published 2006).
